B1: Anterior gradient protein 2 homolog (Homo sapiens), O95994 (parent)
chain: MEKIPVSAFLLLVALSYTLARDTTVKPGAKKDTKDSRPKLPQTLSRGWGDQLIWTQTYEEALYKSKTSNKPLMIIHHLDECPHSQALKKVFAENKEIQKLAEQFVLLNLVYETTDKHLSPDGQYVPRIMFVDPSLTVRADITGRYSNRLYAYEPADTALLLDNMKKALKLLKTEL

Variants of: B1
Conditions: with muc2_human MUC2, Q02817

effect of a mutation on the interaction | Variant
disrupting interaction | MEKIPVSAFLLLVALSYTLARDTTVKPGAKKDTKDSRPKLPQTLSRGWGDQLIWTQTYEEALYKSKTSNKPLMIIHHLDESPHSQALKKVFAENKEIQKLAEQFVLLNLVYETTDKHLSPDGQYVPRIMFVDPSLTVRADITGRYSNRLYAYEPADTALLLDNMKKALKLLKTEL [C81S]

— IntAct's records for PubMed 19359471
